Test results reported in patent publication US7879571B2, “Population based assessments and means to rank the relative immunogenicity of proteins” (Danisco US Inc., priority 2003, dated 2011).
“Also recorded” adds a separate entry of the source.

B1: E7 45: HPV E7 protein, HPV strain 45 (protein, UniProt P21736 1-106, looked up)
Protein E7: MHGPRETLQEIVLHLEPQNELDPVDLLCYEQLSESEEENDEADGVSHAQLPARRAEPQRHKILCVCCKCDGRIELTVESSAEDLRTLQQLFLSTLSFVCPWCATNQ
B2: E7 33: HPV E7 protein, HPV strain 33 (protein, UniProt P06429 1-97, looked up)
Protein E7: MRGHKPTLKEYVLDLYPEPTDLYCYEQLSDSSDEDEGLDRPDGQAQPATADYYIVTCCHTCNTTVRLCVNSTASDLRTIQQLLMGTVNIVCPTCAQQ
B3: E6 33: human papillomavirus E6 protein, HPV strain 33 (protein, UniProt P06427 1-149, looked up)
Protein E6: MFQDTEEKPRTLHDLCQALETTIHNIELQCVECKKPLQRSEVYDFAFADLTVVYREGNPFGICKLCLRFLSKISEYRHYNYSVYGNTLEQTVKKPLNEILIRCIICQRPLCPQEKKRHVDLNKRFHNISGRWAGRCAACWRSRRRETAL
B4: E6 31: human papillomavirus E6 protein, HPV strain 31 (protein, UniProt P17386 1-149, looked up)
Protein E6: MFKNPAERPRKLHELSSALEIPYDELRLNCVYCKGQLTETEVLDFAFTDLTIVYRDDTPHGVCTKCLRFYSKVSEFRWYRYSVYGTTLEKLTNKGICDLLIRCITCQRPLCPEEKQRHLDKKKRFHNIGGRWTGRCIACWRRPRTETQV
B5: BPN′ variant: BPN′ Y217L variant where prominent responses to amino acids 70-84 and 109-123 were reduced to background level (protein, UniProt P00782 108-382, looked up, variant Y217L)
Subtilisin BPN': AQSVPYGVSQIKAPALHSQGYTGSNVKVAVIDSGIDSSHPDLKVAGGASMVPSETNPFQDNNSHGTHVAGTVAALNNSIGVLGVAPSASLYAVKVLGADGSGQYSWIINGIEWAIANNMDVINMSLGGPSGSAALKAAVDKAVASGVVVVAAAGNEGTSGSSSTVGYPGKYPSVIAVGAVDSSNQRASFSSVGPELDVMAPGVSIQSTLPGNKYGALNGTSMASPHVAGAAALILSKHPNWTNTQVRSSLENTTTKLGDSFYYGKGLINVQAAAQ
B6: ALCALASE ®: ALCALASE® enzyme, commercially available from Novo; Swissprot accession number P00780 (protein, UniProt P00780 106-379, looked up)
Subtilisin Carlsberg: AQTVPYGIPLIKADKVQAQGFKGANVKVAVLDTGIQASHPDLNVVGGASFVAGEAYNTDGNGHGTHVAGTVAALDNTTGVLGVAPSVSLYAVKVLNSSGSGSYSGIVSGIEWATTNGMDVINMSLGGASGSTAMKQAVDNAYAKGVVVVAAAGNSGSSGNTNTIGYPAKYDSVIAVGAVDSNSNRASFSSVGAELEVMAPGAGVYSTYPTNTYATLNGTSMASPHVAGAAALILSKHPNLSASQVRNRLSSTATYLGSSFYYGKGLINVEAAAQ
B7: E6 16: human papillomavirus E6 protein, HPV strain 16 (protein, UniProt P03126 1-158, looked up)
Protein E6: MHQKRTAMFQDPQERPRKLPQLCTELQTTIHDIILECVYCKQQLLRREVYDFAFRDLCIVYRDGNPYAVCDKCLKFYSKISEYRHYCYSLYGTTLEQQYNKPLCDLLIRCINCQKPLCPEEKQRHLDKKQRFHNIRGRWTGRCMSCCRSSRTRRETQL
B8: sTNFR1: soluble tumor necrosis factor receptor 1, a soluble recombinant cytokine receptor molecule (protein, UniProt P19438 30-211, looked up)
extracellular domain: LVPHLGDREKRDSVCPQGKYIHPQNNSICCTKCHKGTYLYNDCPGPGQDTDCRECESGSFTASENHLRHCLSCSKCRKEMGQVEISSCTVDRDTVCGCRKNQYRHYWSENLFQCFNCSLCLNGTVHLSCQEKQNTVCTCHAGFFLRENECVSCSNCKKSLECTKLCLPQIENVKGTEDSGTT
modifications: extracellular domain
B9: E7 31: HPV E7 protein, HPV strain 31 (protein, UniProt P17387 1-98, looked up)
Protein E7: MRGETPTLQDYVLDLQPEATDLHCYEQLPDSSDEEDVIDSPAGQAEPDTSNYNIVTFCCQCKSTLRLCVQSTQVDIRILQELLMGSFGIVCPNCSTRL

Legend:
[1] = system: 18 different HLA-DR and -DQ proteins; experiment: HLA class II peptide binding competition assay, panel of 18 alleles; set-up: species or system human; details: good binders: IC50 less than 500 nM
Description: FIG. 17 provides a table showing the IC50 binding values for epitope peptides identified in bacterial proteases by the I-MUNE® assay system of the present invention. Values less than 500 nM are considered to be good binders and are highlighted in bold in the Table. Degeneracy indicates the number of HLA class II proteins that bind with an IC50 of less than 500 nM out of the 18 total alleles tested.
In addition to the above I-MUNE® assay, peptide binding assays were also performed. The peptide binding assay used during the development of the present invention is known in the art (Southwood et al., J. Immunol., 160:3363-3373 [1998]). Briefly, HLA-DR and -DQ molecules were purified from a panel of EBV transformed cell lines. A competition assay was performed with a characterized standard peptide, and the unknown peptide. The amount of unknown peptide required to compete 50% of the standard peptide binding was then determined (indicated as the IC50).
The IC50 for HLA class II protein binding was determined for peptide epitopes defined by the in two related industrial bacterial proteases (See, FIG. 17). The peptides were tested in a competition assay for binding to 18 different HLA-DR and -DQ proteins. […] This likely explains the association seen in the data for a response to this peptide with HLA-DR6(13) donors (p=0.00015; relative risk=7.22, n=113 donors tested). […]

CD4+ T-cells = experiment: I-MUNE assay: CD4+ T-cell proliferation with dendritic cells and 15-mer peptides offset by 3 amino acids, community donors; details: for Background % / Structure Value / Response/Peptide: Table 3; for Response/Peptide: donors with SI>2.95 per peptide; for Background +/- sd / Responses/peptide found: Table 5
Description: Peptides were resuspended in DMSO at approximately 1 to 2 mg/ml, and stored at −70° C. prior to use. Each peptide was tested at least in duplicate, although for small peptide sets (e.g., Ber e 1), the peptides were routinely tested in triplicate.
Volunteer donor human blood buffy coat samples were obtained from two commercial sources (Stanford Blood Center, Palo Alto, Calif., and the Sacramento Medical Foundation, Sacramento, Calif.). Buffy coat samples were further purified by density separation. Each sample was HLA typed for HLA-DR and HLA-DQ using a commercial PCR-based kit (Bio-Synthesis).
Monocytes were purified by adherence to plastic in AIM V medium (Gibco/Life Technologies). Adherent cells were cultured in AIM V media containing 500 units/ml of recombinant human IL-4 (Endogen) and 800 units/ml recombinant human GM-CSF (Endogen) for 5 days. On day 5, recombinant human IL-1α (Endogen) and recombinant human TNF-α (Endogen) were added to 50 units/ml and 0.2 units/ml, respectively. On day 7, the fully matured dendritic cells were treated with 50 ug/ml mitomycin C (Sigma) for 1 hour at 37° C. Treated dendritic cells were dislodged with 50 mM EDTA in PBS, washed in AIM V medium, counted, and resuspended in AIM V media at 2×10^5 cells/ml.
CD4^+ T-cells were purified by negative selection from frozen aliquots of human peripheral blood mononuclear cells (PBMC) using Cellect CD4 columns (Cedarlane). CD4^+ T-cell populations were routinely >80% pure and >95% viable as judged by trypan blue (Sigma) exclusion. CD4^+ T-cells were resuspended in AIM V media at 2×10^6 cells per ml.
CD4^+ T-cells and dendritic cells were plated in round-bottomed 96 well format plates at 100 ul of each cell mix per well. Peptide was added to a final concentration of approximately 5 ug/ml in 0.25-0.5% DMSO. Control wells contained 0.5% DMSO without added peptide. Each peptide was tested in duplicate. Cultures were incubated at 37° C., in 5% CO2 for 5 days. On day 5, 0.5 uCi of tritiated thymidine (NEN DuPont,) was added to each well. On day 6, the cultures were harvested onto glass fiber mats using a TomTec manual harvester (TomTec), then processed for scintillation counting. Proliferation was assessed by determining the average counts per minute (CPM) value for each set of duplicate wells (TriLux Beta).
For each individual buffy coat sample, the average CPM values for all of the peptides were analyzed. The average CPM values for each peptide were divided by the average CPM value for the control (DMSO only) wells to determine the “stimulation index” (SI). Donors were tested with each peptide set until an average of at least two responses per peptide were compiled. The data for each protein was graphed showing the percent responders to each peptide within the set. A positive response was collated if the SI value was equal to or greater than 2.95. This value was chosen as it approximates a difference of three standard deviations in a normal population distribution. For each protein assessed, positive responses to individual peptides by individual donors were compiled. To determine the background response for a given protein, the percent responders for each peptide in the set were averaged and a standard deviation was calculated. SI values for each donor were compiled for each peptide set, and the percent of responders reported.

PBMC = experiment: Maximum proliferative response of PBMC from 30 community donors to inactivated whole protein; type: cell-based, human; details: inactivated enzymes, 5 to 40 ug/ml, 30 donors; p<0.01; listed as protease variant
Description: FIG. 9 provides a graph showing the maximum proliferative responses of PBMC from 30 community donors to BPN′ Y217L (open triangles, structure value=0.53) and the […] BPN′ Y217L variant (closed squares, structure value=0.40). Each donor's maximum response is shown on the y-axis. An SI of 2.0 was the cut-off for a “positive” response. The difference in proliferative responses between BPN′ Y217L and the variant was p<0.01.
In these experiments, PMBC from thirty community donors were tested parametrically with either the whole protein parent enzyme (BPN′ Y217L) or the variant protease. The enzymes were inactivated, and tested over a dose range from 5 to 40 ug/ml. […] The difference between optimal SI values for the two proteins tested on these thirty donors was significant, with a two-tailed parametric t-test value of p<0.01.

| Molecule | Background % (CD4+ T-cells) [%] | Structure Value (CD4+ T-cells) | Response/Peptide (CD4+ T-cells) | also measured |
| --- | --- | --- | --- | --- |
| BPN' Y217L #24: 15-mer epitope peptide number 24 of BPN′ Y217L, first epitope (amino acids 70-84) (GTVAALNNSIGVLGV; UniProt P00782 177-191, looked up, fragment) | – | – | – | HLA class II binding (in words) [1]: binds most HLA class II molecules tested |
| BPN' Y217L#37: 15-mer epitope peptide number 37 of BPN′ Y217L, second epitope (amino acids 109-123) (NGIEWAIANNMDVIN; UniProt P00782 216-230, looked up, fragment) | – | – | – | HLA class II binding (in words) [1]: promiscuous |
| E6 18: human papillomavirus E6 protein, HPV strain 18 | 4.23 | 0.79 | 2.32 | Background response in words (compared with the 11 industrial enzymes) (CD4+ T-cells): not significantly different; Background +/- sd (CD4+ T-cells): 4.23 +/− 4.25; Responses/peptide found (CD4+ T-cells): 2.32 |
| E7 16: HPV E7 protein, HPV strain 16 | 4.33 | 0.66 | 3.9 | – |
| E7 18: HPV E7 protein, HPV strain 18 | 3.55 | 0.44 | 3.19 | – |
| hTpo: human thrombopoietin, a cytokine whose expression is restricted to the bone marrow | – | – | – | Structure value in words (CD4+ T-cells): comparatively high; Background +/- sd (CD4+ T-cells): 2.54 +/− 2.23 |
| B1 | 3.75 | 0.76 | 2.44 | – |
| B2 | 4.32 | 0.54 | 2.55 | – |
| B3 | 2.83 | 0.68 | 1.97 | – |
| B4 | 4.66 | 0.53 | 3.26 | – |
| B5 | – | – | – | Prominent Epitope (CD4+ T-cells; Table 4, number of prominent epitopes): 0; Structure value of variant (CD4+ T-cells; calculated from the 113-donor dataset with responses to 70-84 and 109-123 reduced to background levels): 0.40; Proliferation compared with the parent protein (in words) (PBMC): significantly less proliferation; also recorded: induced less proliferation |
| B6 | – | – | – | Prominent responses (amino acids / peptide positions) (CD4+ T-cells; regions of the protein sequence): 19-33 |
| B7 | 7.12 | 0.72 | 3.92 | Background response in words (compared with the 11 industrial enzymes) (CD4+ T-cells): significantly higher; Background +/- sd (CD4+ T-cells): 7.12 +/− 6.48; Responses/peptide found (CD4+ T-cells): 3.92 |
| B8 | – | – | – | Background +/- sd (CD4+ T-cells): 2.23 +/− 1.95 |
| B9 | 5.26 | 0.78 | 3.1 | – |
